In patent US20110223615A1:

Columns and labels:
Assay in all cases: cell-based or functional assay
[1] = target: SVPB12 (envelope of the HIV-1 pseudovirus) (HIV-1)
[2] = target: SVPB5 (envelope of the HIV-1 pseudovirus) (HIV-1)
[3] = target: SVPB14 (envelope of the HIV-1 pseudovirus) (HIV-1)
[4] = target: JRFL (envelope of the HIV-1 pseudovirus) (HIV-1)
[5] = target: ADA (envelope of the HIV-1 pseudovirus) (HIV-1)
[6] = target: SVPB16 (envelope of the HIV-1 pseudovirus) (HIV-1)
[7] = target: BaL.01 (envelope of the HIV-1 pseudovirus) (HIV-1)
[8] = target: SF162 (envelope of the HIV-1 pseudovirus) (HIV-1)
[9] = target: SVPB17 (envelope of the HIV-1 pseudovirus) (HIV-1)
[10] = target: HIV2 (envelope of the indicator virus, without sCD4) (HIV-2)
[11] = target: MuLV (envelope of the control pseudovirus) (MuLV)

Substance	IC50 (ug/ml) neutralization [1]	IC50 (ug/ml) neutralization [2]	IC50 (ug/ml) neutralization [3]	IC50 (ug/ml) neutralization [4]	IC50 (ug/ml) neutralization [5]	IC50 (ug/ml) neutralization [6]	IC50 (ug/ml) neutralization [7]	IC50 (ug/ml) neutralization [8]	IC50 (ug/ml) neutralization [9]	IC50 (ug/ml) neutralization [10]	IC50 (ug/ml) neutralization [11]
CD4bs mAb b12 (antibody)	> 30 µg/mL	18 µg/mL	0.3 µg/mL	< 0.1 µg/mL	1.2 µg/mL	12 µg/mL	0.2 µg/mL	< 0.1 µg/mL	> 30 µg/mL	> 30 µg/mL	> 30 µg/mL
E51 (antibody)	> 30 µg/mL	> 30 µg/mL	> 30 µg/mL	> 30 µg/mL	> 30 µg/mL	> 30 µg/mL	> 30 µg/mL	45 µg/mL	> 30 µg/mL	> 30 µg/mL	> 30 µg/mL
HIV-1 CD4i mAb 17b (antibody)	> 30 µg/mL	> 30 µg/mL	> 30 µg/mL	> 30 µg/mL	> 30 µg/mL	> 30 µg/mL	> 30 µg/mL	30 µg/mL	> 30 µg/mL	10 µg/mL	> 30 µg/mL
HIV-1 CD4i mAb 19e (antibody)	> 30 µg/mL	> 30 µg/mL	> 30 µg/mL	> 30 µg/mL	> 30 µg/mL	> 30 µg/mL	> 30 µg/mL	> 30 µg/mL	> 30 µg/mL	> 30 µg/mL	> 30 µg/mL
broadly neutralizing mAb 2G12 (antibody)	0.3 µg/mL	8 µg/mL	> 25 µg/mL	0.3 µg/mL	12 µg/mL	> 25 µg/mL	1 µg/mL	0.5 µg/mL	> 25 µg/mL	> 25 µg/mL	> 25 µg/mL
